Laboratory results as given in publication PMC5579238, “MAPK1 of Leishmania donovani interacts and phosphorylates HSP70 and HSP90 subunits of foldosome complex” (Scientific Reports, 2017).
Counter-ions that a name gives are not always drawn.

Experiments:
[1] = molecular target: Leishmania donovani MAPK1 (L. donovani (endogenous in promastigotes))
LdMAPK1 = molecular target: T1, LdMAPK1 (Leishmania donovani, UniProt E2CWC1); test: Kinase-Glo Plus ATP consumption assay with recombinant HSP90 or HSP70 as substrate; Dixon plot; assay type: biochemical
T1 construct: GST fused rLdMAPK1 (pGEX-KG-LdMAPK1), expressed in E. coli
T1 sequence (E2CWC1 1-358): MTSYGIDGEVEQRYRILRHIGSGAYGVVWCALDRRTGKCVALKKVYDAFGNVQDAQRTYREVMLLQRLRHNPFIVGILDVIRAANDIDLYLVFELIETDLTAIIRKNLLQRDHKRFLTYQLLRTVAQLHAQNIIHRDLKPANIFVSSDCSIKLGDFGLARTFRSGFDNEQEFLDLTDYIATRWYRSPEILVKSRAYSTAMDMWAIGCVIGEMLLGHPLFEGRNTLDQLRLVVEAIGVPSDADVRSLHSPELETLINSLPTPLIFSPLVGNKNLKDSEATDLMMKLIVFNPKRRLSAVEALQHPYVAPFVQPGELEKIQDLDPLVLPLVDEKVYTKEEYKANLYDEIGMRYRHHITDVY

Sequence of HSP70 (P17804 whole entry, the tested form may be a part): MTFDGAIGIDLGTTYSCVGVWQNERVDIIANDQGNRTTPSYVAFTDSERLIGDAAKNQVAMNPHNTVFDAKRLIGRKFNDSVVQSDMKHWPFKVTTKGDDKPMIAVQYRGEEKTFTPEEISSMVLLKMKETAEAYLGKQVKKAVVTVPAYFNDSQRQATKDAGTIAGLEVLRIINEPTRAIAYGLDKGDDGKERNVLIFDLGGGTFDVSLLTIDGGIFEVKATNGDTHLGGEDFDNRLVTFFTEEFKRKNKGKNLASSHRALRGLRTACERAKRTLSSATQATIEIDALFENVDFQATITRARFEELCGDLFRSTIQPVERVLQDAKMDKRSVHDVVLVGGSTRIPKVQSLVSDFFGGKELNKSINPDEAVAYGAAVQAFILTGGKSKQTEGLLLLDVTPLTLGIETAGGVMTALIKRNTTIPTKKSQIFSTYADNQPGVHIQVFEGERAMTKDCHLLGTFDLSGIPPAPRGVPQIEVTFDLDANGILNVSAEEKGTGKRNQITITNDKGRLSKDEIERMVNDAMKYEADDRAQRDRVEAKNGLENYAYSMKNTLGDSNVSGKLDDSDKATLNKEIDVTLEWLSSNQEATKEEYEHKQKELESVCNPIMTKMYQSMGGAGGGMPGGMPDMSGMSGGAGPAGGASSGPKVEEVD

## HSP90 (natural protein)
[1]
  Km of the in vitro kinase assay (ATP consumption, Kinase-Glo) of recombinant GST-LdMAPK1 with recombinant His-tagged HSP90 as substrate: 0.0167 µM

## CCOc1ccc(C=C2SC(=O)N(CCN)C2=O)cc1 [AMTZD, 3-(2-aminoethyl)-5-([4-ethoxyphenyl]methylene)-2,4-thiazolidinedione HCl]
LdMAPK1
  Ki: 2720 ± 140 nM

## HSP70 (from UniProt P17804 1-653) (natural protein)
[1]
  Km of the in vitro kinase assay (ATP consumption, Kinase-Glo) of recombinant GST-LdMAPK1 with recombinant His-tagged HSP70 as substrate: 0.0176 µM
